Where a chain is given by its changes, count along the chain named.
B1: anti-GPRC5D-anti-CD3 bispecific molecule C3022-C3E7036 (bispecific antibody)
scFv: GQVQLVQSGAEVKKPGASVKVSCKASGYTFTGYYMHWVRQAPGQGLEWMGRINPNSGGTNYAQKFQGRVTMTRDTSISTAYMELSGLRSDDTAVYYCASGSVRHPWGQGTLVTVSSGGGGSGGGGSGGGGSQPVLTQPPSASGTPGQRVTISCSGSRSNIGGNIVSWYQQFPGTAPRLLTYADNQRPSGVPDRFSGSKSGTSASLAISGLQSEDEADYYCAAWDDSLNGVVFGGGTKLTVLGGGGSEVQLVESGGGLVQPGGSLRLSCAASGVTFNYYGMSWIRQAPGKGLEWVASITNSGGRIYYPDSVKGRFTISRENTQKTLYLQMNSLRAEDTAVYYCTLDGRDGWVAYWGQGTLVTVSSGGGGSGGGGSGGGGSNFMLTQPSSVSGVPGQRVTISCTGNTGNIGSNYVNWYQQLPGTAPKLLIYRDDKRPSGVPDRFSGSKSGTSASLAITGFQAEDEADYYCQSYSSGFIFGGGTKLTVLGAAAGAGGDYKDDDDKGAAAHHHHHH
notes: Tandem scFv
B2: humanized anti-GPRC5D antibody h7B4_H3/L2 (antibody, human IgG1, kappa)
heavy: not shown
light: DIQMTQSPSSLSLSPGERATLSCKASQNINKYLDWYQQKPGQPPRLLIYNTNNLHTGIPDRFSGSGSGTDYTLTISRLEPEDFAVYYCLQRNSWYTFGQGTKVEIKRTVAAPSVFIFPPSDEQLKSGTASVVCLLNNFYPREAKVQWKVDNALQSGNSQESVTEQDSKDSTYSLSSTLTLSKADYEKHKVYACEVTHQGLSSPVTKSFNRGEC
notes: Human IgG1 / kappa
B3: humanized anti-GPRC5D antibody h7B4_H3/L1 (antibody, human IgG1, kappa)
heavy: not shown
light: B2 light with D1E, Q3V, M4L, S9G, S10T
notes: Human IgG1 / kappa
B4: humanized anti-GPRC5D antibody h7B4_H2/L2 (antibody, human IgG1, kappa, V domains shown)
VH: EIQLQESGPGLVKPSQTLSLTCTVSGYTITSGYDWSWIRQPPGKGLEWIGYMSYRGSTNYNPSLKSRVTISRDTSKNQFSLKLSSVTAADTAVYYCALTRTYWYNYYYVLDAWGQGTLVTVSS
VL: DIQMTQSPSSLSLSPGERATLSCKASQNINKYLDWYQQKPGQPPRLLIYNTNNLHTGIPDRFSGSGSGTDYTLTISRLEPEDFAVYYCLQRNSWYTFGQGTKVEIKR
notes: Human IgG1 / kappa
B5: humanized anti-GPRC5D antibody h7B4_H5/L1 (antibody, human IgG1, kappa, V domains shown)
VH: B4 VH with Q40K, K44N, G45K, L46M, G50A
VL: B4 VL with D1E, Q3V, M4L, S9G, S10T
notes: Human IgG1 / kappa
B6: humanized anti-GPRC5D antibody h7B4_H1/L2 (antibody, human IgG1, kappa)
heavy: not shown
light: B2 light
notes: Human IgG1 / kappa
B7: anti-GPRC5D-anti-CD3 bispecific molecule C3048-C3E7036 (bispecific antibody)
scFv: GQVQLVQSGAEVKKPGSSVKVSCKASGGTFSRYAISWVRQAPGQGLEWMGGIIPIFGTANYAQKFQGRVTITADQSTRTAYMDLGRLRSEDTAVYYCALEGFRDSLKRNPFDIWGQGTMVTVSSGGGGSGGGGSGGGGSQSVVTQPPSVSAAPGQKVTISCSGGTTNIGSNYVSWYQQLPGTAPKFLMYENNKRPSGIPDRFSGSKSGTSATLAITGLQTGDEATYYCSTWDSSLNTGLFGGGTKLTVLGGGGSEVQLVESGGGLVQPGGSLRLSCAASGVTFNYYGMSWIRQAPGKGLEWVASITNSGGRIYYPDSVKGRFTISRENTQKTLYLQMNSLRAEDTAVYYCTLDGRDGWVAYWGQGTLVTVSSGGGGSGGGGSGGGGSNFMLTQPSSVSGVPGQRVTISCTGNTGNIGSNYVNWYQQLPGTAPKLLIYRDDKRPSGVPDRFSGSKSGTSASLAITGFQAEDEADYYCQSYSSGFIFGGGTKLTVLGAAAGAGGDYKDDDDKGAAAHHHHHH
notes: Tandem scFv
B8: anti-GPRC5D-anti-CD3 bispecific molecule C3048-C3E7035 (bispecific antibody)
scFv: GQVQLVQSGAEVKKPGSSVKVSCKASGGTFSRYAISWVRQAPGQGLEWMGGIIPIFGTANYAQKFQGRVTITADQSTRTAYMDLGRLRSEDTAVYYCALEGFRDSLKRNPFDIWGQGTMVTVSSGGGGSGGGGSGGGGSQSVVTQPPSVSAAPGQKVTISCSGGTTNIGSNYVSWYQQLPGTAPKFLMYENNKRPSGIPDRFSGSKSGTSATLAITGLQTGDEATYYCSTWDSSLNTGLFGGGTKLTVLGGGGSEVQLVESGGGLVQPGGSLRLSCAASGVTFNYYGMSWIRQAPGKGLEWVASITNSGGRIYYPDSVKGRFTISRENTQKTLYLQMNSLRAEDTAVYYCTLDGRDGWVAYWGQGTLVTVSSGGGGSGGGGSGGGGSMAQAVLTQPSSVSGVPGQRVTISCKRNTGNIGSNYVNWYQQLPGTAPKLLIYRDDKRPSGVPDRFSGSKSGTSASLAITGFQAEDEADYYCQSYSSGFIFGGGTKLTVLGAAAGAGGDYKDDDDKGAAAHHHHHH
notes: Tandem scFv
B9: anti-GPRC5D-anti-CD3 bispecific molecule C3022-C3E7035 (bispecific antibody)
scFv: GQVQLVQSGAEVKKPGASVKVSCKASGYTFTGYYMHWVRQAPGQGLEWMGRINPNSGGTNYAQKFQGRVTMTRDTSISTAYMELSGLRSDDTAVYYCASGSVRHPWGQGTLVTVSSGGGGSGGGGSGGGGSQPVLTQPPSASGTPGQRVTISCSGSRSNIGGNIVSWYQQFPGTAPRLLTYADNQRPSGVPDRFSGSKSGTSASLAISGLQSEDEADYYCAAWDDSLNGVVFGGGTKLTVLGGGGSEVQLVESGGGLVQPGGSLRLSCAASGVTFNYYGMSWIRQAPGKGLEWVASITNSGGRIYYPDSVKGRFTISRENTQKTLYLQMNSLRAEDTAVYYCTLDGRDGWVAYWGQGTLVTVSSGGGGSGGGGSGGGGSMAQAVLTQPSSVSGVPGQRVTISCKRNTGNIGSNYVNWYQQLPGTAPKLLIYRDDKRPSGVPDRFSGSKSGTSASLAITGFQAEDEADYYCQSYSSGFIFGGGTKLTVLGAAAGAGGDYKDDDDKGAAAHHHHHH
notes: Tandem scFv
B10: E1018 scFv (high binding mutant of C3022) (scFv)
chain: QVQLVQSGAEVKKPGASVKVSCKASGYTFTGYYMHWVRQAPGQGLEWMGRINPNSGGTNYAQKFQGRVTMTRDTSISTAYMELSGLRSDDTAVYYCKSGSVRPPWGQGTLVTVSSGGGGSGGGGSGGGGSQPVLTQPPSASGTPGQRVTISCSGSRSNIGGNIVSWYQQFPGTAPRLLTYRNTRRPSGVPDRFSGSKSGTSASLAISGLQSEDEADYYCAAWDDSLGGVVFGGGTKLTVL

Columns and labels:
human GPRC5D [1] = molecular target: T1, human GPRC5D (human, UniProt Q9NZD1 1-345); assay: flow cytometry on A4/Fuk cells (endogenous human GPRC5D), Penta-His Alexa Fluor 488 detection, rMFI = MFI minus sample without antibody
T1 construct: whole, on cells; also called hGPRC5D; G-protein coupled receptor family C group 5 member D
T1 sequence (Q9NZD1 whole entry): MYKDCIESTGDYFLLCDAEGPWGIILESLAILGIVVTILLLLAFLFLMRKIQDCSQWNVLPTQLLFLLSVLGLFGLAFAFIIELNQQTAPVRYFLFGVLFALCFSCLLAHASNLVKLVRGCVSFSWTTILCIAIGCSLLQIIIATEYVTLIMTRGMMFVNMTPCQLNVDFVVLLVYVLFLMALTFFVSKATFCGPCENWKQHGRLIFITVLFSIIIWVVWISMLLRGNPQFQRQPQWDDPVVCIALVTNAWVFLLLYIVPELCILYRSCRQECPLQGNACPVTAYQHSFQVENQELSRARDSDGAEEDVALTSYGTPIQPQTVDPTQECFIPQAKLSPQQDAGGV
Experimental: Lymphoma cell line A4/Fuk cells (JCRB Cell Bank) were adjusted to an appropriate concentration with PBS containing 5% FBS. LIVE/DEAD Fixable Near-IR Dead Cell Stain Kit was added to the cells, which were then left standing at 4° C. for 30 minutes. The cells were washed twice with PBS containing 5% FBS, then adjusted to a concentration of 1×10⁶ cells/mL with PBS containing 5% FBS, inoculated in an amount of 100 μL/well to a 96-well U-bottomed microplate, and centrifuged to remove a supernatant. Each anti-GPRC5D-anti-CD3 bispecific molecule (C2037-C3E7034 to C3022-C3E7036 prepared in Example 12) diluted with PBS containing 5% FBS were added thereto in an amount of 100 μL/well, and the plate was left standing at 4° C. for 60 minutes. The cells were washed twice with PBS containing 5% FBS. Then, Penta-His Alexa Fluor 488 diluted with PBS containing 5% FBS was added thereto in an amount of 30 μL/well, and the plate was left standing at 4° C. for 30 minutes. The cells were washed twice with PBS containing 5% FBS and then resuspended in PBS containing 5% FBS, followed by detection using a flow cytometer (FACSCanto™ II). The data was analyzed using Flowjo. The mean fluorescence intensity (MFI) of Alexa Fluor 488 in a fraction free from dead cells was calculated. The MFI value of the antibody-unsupplemented sample was subtracted from the MFI value of the antibody-supplemented sample to calculate a relative value of MFI (rMFI).

human GPRC5D [2] = molecular target: T1, human GPRC5D; assay: flow cytometry on KHM-1B cells (human GPRC5D), culture supernatant, PE anti-human IgG Fc, rMFI over human IgG isotype control
Experimental: Human multiple myeloma cell line KHM-1B cells expressing GPRC5D were adjusted to a concentration of 2×10⁶ cells/mL with PBS containing 5% FBS, inoculated in an amount of 100 μL/well to a 96-well U-bottomed microplate, and centrifuged to remove a supernatant. The culture supernatant of each humanized anti-GPRC5D antibody obtained in Example 8)-3-1 or Human IgG isotype control antibody (Calbiochem/Merck Millipore Corp.) adjusted to 14 ng/mL to 30 μg/mL was added thereto in an amount of 100 μL/well, and the plate was left standing at 4° C. for 1 hour. The cells were washed twice with PBS containing 5% FBS. Then, R-Phycoerythrin AffiniPure F(ab′)2 Fragment Goat Anti-Human IgG, Fcγ Fragment Specific (Jackson ImmunoResearch Laboratories, Inc.) diluted 100-fold with PBS containing 5% FBS was added thereto in an amount of 100 μL/well, and the plate was left standing at 4° C. for 1 hour. The cells were washed twice with PBS containing 5% FBS and then resuspended in PBS containing 5% FBS, followed by detection using a flow cytometer (FACSCanto™ II; Becton, Dickinson and Company). The data was analyzed using Flowjo (Tree Star, Inc.). The PE fluorescence intensity of the cell fraction was plotted to a histogram, and the mean fluorescence intensity (MFI) was calculated. The MFI value of the control antibody was subtracted from the MFI value of the GPRC5D antibody to calculate a relative value of MFI (rMFI).

cynomolgus monkey GPRC5D = molecular target: T2, cynomolgus monkey GPRC5D (cynomolgus monkey); assay: flow cytometry on KMS-11_cGPRC5D cells (cynomolgus monkey GPRC5D), PE anti-human IgG Fc detection, rMFI = MFI minus isotype control
T2 construct: whole, on cells; Stably expressed on KMS-11 cells (KMS-11_cGPRC5D); also called cGPRC5D

[3] = molecular target: T3, human GPRC5D amino-terminal peptide MYKDCIESTGDYFLLCDAEGPWGIILE-K(Biotin)-NH2, having an intramolecular … (human, C-terminal lysine carrying biotin, C-terminal amide; intramolecularly formed disulfide bond); assay: SPR (Biacore T200), kinetic analysis: biotinylated amino-terminal peptide of human GPRC5D on Sensor Chip CAP, scFv as analyte
T3 construct: Peptide Institute synthetic peptide; also called amino-terminal peptide of biotinylated human GPRC5D (disulfide bond present)
T3 peptide: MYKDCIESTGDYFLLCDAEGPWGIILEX
Experimental: The binding activity of the anti-GPRC5D antibodies against the amino-terminal peptide of human GPRC5D was tested by SPR using Biacore T200. The amino-terminal peptide of biotinylated human GPRC5D diluted to 2 nM with HBS-EP+ (manufactured by GE Healthcare Bio-Sciences Corp.) was immobilized on Sensor Chip CAP (manufactured by GE Healthcare Bio-Sciences Corp.) by contact at a rate of 10 μL/min for 180 seconds. Then, Kd was calculated by kinetic analysis using a plurality of concentrations of each scFv diluted with HBS-EP+ as analytes.

Binder | binding result (human GPRC5D [1]) | binding result (human GPRC5D [2]) | EC50 (read off the curve) (cynomolgus monkey GPRC5D) [nM] | Kd [3] [nM]
B1 | binds | – | – | –
B2 | – | binds | ~2 | –
B3 | – | binds | ~2 | –
B4 | – | binds | ~2 | –
B5 | – | binds | ~2 | –
B6 | – | binds | ~3 | –
B7 | binds | – | – | –
B8 | binds | – | – | –
B9 | binds | – | – | –
B10 | – | – | – | 0.0032
